Laboratory results published in publication PMC4084637.
pKd: −log10 of the molar value.

Assays:
antibody PGT128 (human) = test: SPR
antibody PGT135 (human) = test: SPR
antibody PGT135 (human), sequence (heavy, as listed by the source, chain 1 of 2): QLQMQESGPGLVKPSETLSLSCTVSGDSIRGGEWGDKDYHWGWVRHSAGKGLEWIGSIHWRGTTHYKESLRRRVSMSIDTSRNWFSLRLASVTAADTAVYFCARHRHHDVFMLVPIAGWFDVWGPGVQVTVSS
antibody PGT135 (human), sequence (light, as listed by the source, chain 2 of 2): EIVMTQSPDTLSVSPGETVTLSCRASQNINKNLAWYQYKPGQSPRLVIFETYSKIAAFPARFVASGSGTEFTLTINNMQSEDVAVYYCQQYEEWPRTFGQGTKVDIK

antibody PGT128 (human), sequence (heavy, as listed by the source, chain 1 of 2): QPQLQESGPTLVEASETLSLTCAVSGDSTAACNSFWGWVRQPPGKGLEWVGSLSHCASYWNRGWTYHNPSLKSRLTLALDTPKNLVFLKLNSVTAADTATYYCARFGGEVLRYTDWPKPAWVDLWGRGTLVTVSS
antibody PGT128 (human), sequence (light, as listed by the source, chain 2 of 2): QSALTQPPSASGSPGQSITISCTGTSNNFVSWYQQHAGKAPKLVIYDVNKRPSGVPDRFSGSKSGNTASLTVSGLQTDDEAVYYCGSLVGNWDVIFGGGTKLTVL

YU2 gp120 (from UniProt P35961 32-498) (natural protein)
pKd (antibody PGT128 (human)): 7.96 | pKd (antibody PGT135 (human)): 7.74
